This passage reports EC50 results from patent EP4563159A1.

This assay deals with secretory IgA from human colostrum (human) (UniProt P11912). The experiment in a line: solid-phase IgA binding assay (ELISA): streptavidin-peptide conjugate coated, secretory IgA from human colostrum titrated, anti-human IgA-HRP detection. In general terms: ELISA stands for enzyme-linked immunosorbent assay.
Chain of UniProt P11912 (P11912 whole entry): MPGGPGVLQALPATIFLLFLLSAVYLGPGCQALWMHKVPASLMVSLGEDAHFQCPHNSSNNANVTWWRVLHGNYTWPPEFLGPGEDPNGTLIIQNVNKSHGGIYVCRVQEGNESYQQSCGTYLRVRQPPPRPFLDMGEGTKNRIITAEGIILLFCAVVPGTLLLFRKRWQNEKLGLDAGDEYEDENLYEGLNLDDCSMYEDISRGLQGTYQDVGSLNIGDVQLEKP

For the molecule HSVCLAYRGRPVCFPT (cyclized; carboxy terminal PEG linker and a biotin tag) [IgA binding peptide … (SEQ ID NO 36)], the EC50 turned out to be 900 nM.
In the case of KMVCLAYRGRPVCFPT (cyclized; carboxy terminal PEG linker and a biotin tag) [IgA binding peptide … (SEQ ID NO 35)] it was 900 nM.

What is called EC50 is the concentration giving half of the maximal effect. Read a low EC50 as greater potency.
